Assay: yeast display, Sf9 membrane polyspecificity reagent, FACS + sequencing; frameworks hold sequencing errors
Procedure, shortened: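 Synthetic nanobody libraries on Saccharomyces cerevisiae BJ5465 were galactose-induced for 36–48 hours, stained 1 hour at 4 °C with 10% biotinylated, detergent-solubilized Sf9 membrane reagent and enriched on streptavidin microbeads. FACS then separated cells into low and high (top ~1%) gates by anti-HA (expression) and streptavidin (reagent binding) fluorescence. Genes were colony-PCR amplified, MiSeq 2 × 250 sequenced and CDR-length filtered. A clone's polyreactivity label is that of its gate of origin.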

Q: For “QVQLVESGGGLVQAGGSLRLSCAASGRIFPSYAMGWYRQAPGKERELDATISSGGRTYYADSVKGRFTISRDNAKNTVYLQMNILKPEYTAVYYCNADRTQDRNPYTYATFDYWGQGTQVTVSS”, which “polyreactivity (PSR sort gate)” value is on record?
A: low polyreactivity

Q: Which “polyreactivity (PSR sort gate)” value does the source give for “QVQLVESGGGLVQAGGSLRLSCAASGRIFPSYAMGWYRQAPGKERELVAAISYSGASTYYADSVKGRFTFSRDNAKNTVYLQMNSLKPEDTAVYYCNAESGPKYYWGYAGTFDYWGQGTQVTVSS” here?
A: low polyreactivity

Q: For “QVQLVESGGGLVQAGGSLRLSCAASGRIFPSYAMGWYRQAPGKERELVATISSGGRTYYADSVKGRFTISRDNAKNTVYLQMTSLKPEDTAVYYCARRSLYHVRTQIYEYWGQGTQVTVSS”, which “polyreactivity (PSR sort gate)” value is on record?
A: low polyreactivity

Q: With “QVQLVESGGGLVQAGGSLRLSCAASGRIFPTNAMGWSRQAPGKERELVASITRSGSTYYADSVKGRFTISRDHAKNTVYLQMNSLKPEDTAVYYCAGYAYIFLDWGGYPYYLYEYDYWGQGTQVTVSS” as the sequence, how does the “polyreactivity (PSR sort gate)” value read?
A: low polyreactivity

Q: Which “polyreactivity (PSR sort gate)” value does the source give for “QVQLVESGGGLVQAGGSLRLSCAASGRIFPTNAMGWYRQAPGKERVFVAAITWGGGSTYYAVSVKGRFTISRDNAKNTVYLQMNSLKPEDTAVYYCAATGHIVFFRSYDYGYWGQGTQVTVSS” here?
A: low polyreactivity

Q: With “QVQLVESGGGLVQAGGSLRLSCAASGRIFPTYAMGWYRQAPGKERELFAGITSGGRTNYADSVKGRFTISRDNAKNTVYLQMNSLKPEDTAVYYCAKRVWPRDQYGKRNPRMDYWGQGTQVTVSS” as the sequence, how does the “polyreactivity (PSR sort gate)” value read?
A: high polyreactivity

Q: For “QVQLVESGGGLVQAGGSLRLSCAASGRIFPTYAMGWYRQAPGKERELVAAITWRGGRTYYADSEKGRFTISRDYAKNTVYLQMNSLKPEDTAVYYCAAGWLTRSYEYDYWGQGTQVTVSS”, which “polyreactivity (PSR sort gate)” value is on record?
A: high polyreactivity

Q: With “QVQLVESGGGLVQAGGSLRLSCAASGRIFPTYAMGWYRQAPGKERELVAGITSGGRTNYADSVKGRFTISRDNAKNTVYLQMNSLKQEDTAVYYCDKRVWPRDQYGKRNPRMDYWGQGTQVTVSS” as the sequence, how does the “polyreactivity (PSR sort gate)” value read?
A: high polyreactivity

Q: With “QVQLVESGGGLVQAGGSLRLSCAASGRIFPTYAMVWYRQAPGKDRELVASISWSGGRTYYADSVKGRFSISRDNAKITVFLQMNSLKPEDTAVYYCAKRTYQGEGTVKRRYDYWGQVTQVTVSS” as the sequence, how does the “polyreactivity (PSR sort gate)” value read?
A: low polyreactivity

Q: Which “polyreactivity (PSR sort gate)” value does the source give for “QVQLVESGGGLVQAGGSLRLSCAASGRIFPTYTMGWYRQAPGKERELVAGISYSGTSTSYADSVKGRFTISRDNAKNTVYLQMNSLKPEDTAVYYCAAKYYGRSFYYGYDYWGQGTQVTVSS” here?
A: low polyreactivity

Q: For “QVQLVESGGGLVQAGGSLRLSCAASGRIFPVNAMGWYRQAPGTERELVATISSGDITNYAHSVKGRFTISRDNAKNTVYLQMNSLKPEDTAVYYCAADYTWRAWTYYGIKYNYWGQGTQVTVSS”, which “polyreactivity (PSR sort gate)” value is on record?
A: low polyreactivity

Q: With “QVQLVESGGGLVQAGGSLRLSCAASGRIFPVYTMGWYRQAPGKERELVAAITSSGGSTYYADSVKGRFTISRDNAKNTVYLQMNSLKPEDTAVYYCAKRAGWAYYYWGQGTQVTVSS” as the sequence, how does the “polyreactivity (PSR sort gate)” value read?
A: high polyreactivity

Q: Which “polyreactivity (PSR sort gate)” value does the source give for “QVQLVESGGGLVQAGGSLRLSCAASGRIFPWNTMGWYRQAPGKERELVAGITSCGSTNYADSVKGRFTISRDNAKNTVYLQMNSLKPEDTAVYSCAARGYYWYISGVYEYEYWGQGTQVTVSS” here?
A: low polyreactivity

Q: Which “polyreactivity (PSR sort gate)” value does the source give for “QVQLVESGGGLVQAGGSLRLSCAASGRIFPWYAMGWYRQAPGKERALVAAINWRAGRTYYADSVKGRFTISRDNAKNTVYLQMNSLKPEDTAVYYCAAETYSSGEWYDYWGQGTQVTVSS” here?
A: high polyreactivity

Q: With “QVQLVESGGGLVQAGGSLRLSCAASGRIFPWYAMGWYRQAPGKERELVATITRGTSTNYADSVKGRFTISRDNAKNTVYLQMNSLKPEDTAVYYCAASSSRRRYYYWGQGTQVTVSS” as the sequence, how does the “polyreactivity (PSR sort gate)” value read?
A: high polyreactivity

Q: Which “polyreactivity (PSR sort gate)” value does the source give for “QVQLVESGGGLVQAGGSLRLSCAASGRIFPYYAMGWYRQAPGKERELVAAISYRGTRTSYADSVKGRFTISRDNAKNTVYLQMNSLKPEDTAVYYCAAQRYFGISWPYDYWGQGTQVTVSS” here?
A: high polyreactivity

Q: Which “polyreactivity (PSR sort gate)” value does the source give for “QVQLVESGGGLVQAGGSLRLSCAASGRIFPYYAMGWYRQAPGKERELVAAITQGGGRTYYADSVKGRFTISRDNAKNTVYLQMNSLKPEDTAVYYCAKRFTIRALLLRWADYDYWGQGTQVTVSS” here?
A: low polyreactivity

Q: With “QVQLVESGGGLVQAGGSLRLSCAASGRIFPYYAMGWYRQAPGKERELVATIRGRVGTTYYADSVKGRFTISRDNAKNSVYLEMNSLKPEDTAVYYCNTDNYSPYRYVGLYDYWGQGTQVTVSS” as the sequence, how does the “polyreactivity (PSR sort gate)” value read?
A: high polyreactivity

Q: With “QVQLVESGGGLVQAGGSLRLSCAASGRIFPYYAMGWYRQAPGKERELVATISGGGSTDYADSVKGRFTISRDNAKNTVYLQMNSLKPEDTAVYYFAKKLRGWHTIITDYDYWGQGTQVTVSS” as the sequence, how does the “polyreactivity (PSR sort gate)” value read?
A: low polyreactivity

Q: With “QVQLVESGGGLVQAGGSLRLSCAASGRIFQHNTMGWYRQAPGKERDFVAAIRRSGGSTYYADSVKGRFTISRDNAKNTVYLQMNSLKPEDTAVYYCAARDYPTGTRRWGGGDSWGQGTEVTVSS” as the sequence, how does the “polyreactivity (PSR sort gate)” value read?
A: low polyreactivity

Q: With “QVQLVESGGGLVQAGGSLRLSCAASGRIFQKNAMGWYRQAPGKERELVAAISGSGSTTNYADSVKGRFTISRDNAKNTVYLQLNSLTPEDTAVYYCATGKRGVSGRGFRYDYWGQGTQVTVSS” as the sequence, how does the “polyreactivity (PSR sort gate)” value read?
A: high polyreactivity

Q: With “QVQLVESGGGLVQAGGSLRLSCAASGRIFQRYAMGWYRQAPGKERELVAAITTGGRTYYADSVKGRFTISRDNAKNTVYLQMNSLKPEDTAVYYCAARFVGSRYRFDYWGQGTQVTVSS” as the sequence, how does the “polyreactivity (PSR sort gate)” value read?
A: high polyreactivity

Q: For “QVQLVESGGGLVQAGGSLRLSCAASGRIFQYNPMGWYIQAPGKERELVADITWIGGSTYADSVKGRFTISRDTAKNTVYLQMNSLKPEDTAVYYCNARYIYRFDYWGQGSQVTVSS”, which “polyreactivity (PSR sort gate)” value is on record?
A: low polyreactivity

Q: Which “polyreactivity (PSR sort gate)” value does the source give for “QVQLVESGGGLVQAGGSLRLSCAASGRIFQYNVMGWYRQAPGKERELVAAISSGGNTYYADSVKGRFTISRDNAKNTVYLQMNSLKPEDTAVYYCAADHYVPWPNYDYDYWGQGTQVTVSS” here?
A: low polyreactivity

Q: Which “polyreactivity (PSR sort gate)” value does the source give for “QVQLVESGGGLVQAGGSLRLSCAASGRIFQYSAMGWYRQAPGKEREFVASITFRGGRTNYADSVKGRFTISRDNAKNTVYLQMNSLKPEDTAVYYCAVSLRRGGSGYAYDYWGQGTQVTVSS” here?
A: high polyreactivity

Q: With “QVQLVESGGGLVQAGGSLRLSCAASGRIFQYYAAMGWYRQAPGKERELVASIRATGGSTYYADSVKGRFTISRDNAKNTVYLQMNSLKPEDTAVYYCAARFAAKSLPAYDYWGQGTQVTVSS” as the sequence, how does the “polyreactivity (PSR sort gate)” value read?
A: low polyreactivity

Q: Which “polyreactivity (PSR sort gate)” value does the source give for “QVQLVESGGGLVQAGGSLRLSCAASGRIFQYYDMGWYRQAPGKERELVAAITFSGGSTYYADSVKGRFTISRDNAKNTVYLQMNSLKPEDTAVYYCARGYWVYYPDGDYWGQGTQVTVSS” here?
A: low polyreactivity

Q: Which “polyreactivity (PSR sort gate)” value does the source give for “QVQLVESGGGLVQAGGSLRLSCAASGRIFQYYDMGWYRQAPGKERELVATITSGGSTNYADSVKGRFTISRDNAKNTVYLQMNSLKPEDTAVYYCAALAYTASDYQPYDATEYNYWGQGTQVTVSS” here?
A: low polyreactivity

Q: With “QVQLVESGGGLVQAGGSLRLSCAASGRIFRANAMGWSRQAPGKERELVAAISTSGGSTTYADSVKGRFTISRDNSKNTVYLQMNSLKPEDTAVYYCAVDSWLKWRDKWVIRHDYWGQGTQVTVSS” as the sequence, how does the “polyreactivity (PSR sort gate)” value read?
A: high polyreactivity

Q: For “QVQLVESGGGLVQAGGSLRLSCAASGRIFRAYTMGWYRQAPGKERELVAAITWRGGRTYYADSVKGRFTISRDNAKNTVYLQMNSLKPEDTAVYYCAAVRKYRAMDYWGQGTQVTVSS”, which “polyreactivity (PSR sort gate)” value is on record?
A: high polyreactivity

Q: Which “polyreactivity (PSR sort gate)” value does the source give for “QVQLVESGGGLVQAGGSLRLSCAASGRIFRDNAMGWYRQAPGKERELVAAISRRGGSTYYADSVKGRFTISRDNAKNTVYLQMNSLKPEDTAVYYCNKTTQSRTFRYDYWGQGTQVTVSS” here?
A: low polyreactivity

Q: For “QVQLVESGGGLVQAGGSLRLSCAASGRIFRDYAMGWYRQAPGNERELVAAISWSGGSTYYADSVKGRFTISRDNAKNTVYLQMNSLKPEDTAVYYCAGDYYGGDSYRYDYWGQGTQVTVSS”, which “polyreactivity (PSR sort gate)” value is on record?
A: low polyreactivity

Q: For “QVQLVESGGGLVQAGGSLRLSCAASGRIFRDYSMGWYRQAPGKETELVATITWSGATTYYADSVKGRFTISRDNAKNTVYLQMNSLKPEDTAVYYCNTDTDVDVAFDSWGQGTQVTVSS”, which “polyreactivity (PSR sort gate)” value is on record?
A: low polyreactivity

Q: Which “polyreactivity (PSR sort gate)” value does the source give for “QVQLVESGGGLVQAGGSLRLSCAASGRIFRDYVMGWYRQAPGKERELVAGITGSVDSTNYADSVKGRFTISRDNAKNTVYLQMNSLKPEDTAVYYCNAEFWRGTYRFGYWGQGTQVTVSS” here?
A: low polyreactivity

Q: Which “polyreactivity (PSR sort gate)” value does the source give for “QVQLVESGGGLVQAGGSLRLSCAASGRIFRFYAMGWYRQAPGKDRELVAAISSRGGSTYYADSVTGRFTISRDNAKNTVYLQMNSLKPEDTAVYYCAKRSQKAYKYRDYRFDYWGQGTQVTVSS” here?
A: high polyreactivity

Q: Which “polyreactivity (PSR sort gate)” value does the source give for “QVQLVESGGGLVQAGGSLRLSCAASGRIFRGNAMGWYRQAPGKERELVAAISWGGGSTYYAYSVKGRFTISRDNAKNTVYLQMNSLKPEDTAVYYWNKEYVFWRFPNWYTYGYWGQGTQVTLSS” here?
A: high polyreactivity

Q: For “QVQLVESGGGLVQAGGSLRLSCAASGRIFRGNVMGWYIQAPGKERELVATITSSARTYYADSVKGRFTISRDNAMITVYLQMNSLKPEDTAVYYCAAKTRWNFYYWGQGTQVSVSS”, which “polyreactivity (PSR sort gate)” value is on record?
A: high polyreactivity

Q: Which “polyreactivity (PSR sort gate)” value does the source give for “QVQLVESGGGLVQAGGSLRLSCAASGRIFRGNVMGWYRQAPGKERELVAVIRSSSGRTYYADSVKGRFTISRDNAKNTVYLQMNSLKPEDTAVYYCAAKSVWGQGTQVTVSS” here?
A: high polyreactivity

Q: Which “polyreactivity (PSR sort gate)” value does the source give for “QVQLVESGGGLVQAGGSLRLSCAASGRIFRGYAMGWYRQAPGKEREFVDAITKNGGSTYYADSVKGRFTISRDNAKNTVYLQMNSLKPEDTAVYYCAVRAWDPYTGKSEYWGQGTQVTVSS” here?
A: low polyreactivity

Q: Which “polyreactivity (PSR sort gate)” value does the source give for “QVQLVESGGGLVQAGGSLRLSCAASGRIFRGYAMGWYRQAPGKERELVAAISGGGGSTYYADSVKGRFTISRDNAKNTVYLQMNSLKPEDTAVYYCNALRIRGSKVFEGDYWGQGTQVTVSS” here?
A: high polyreactivity

Q: With “QVQLVESGGGLVQAGGSLRLSCAASGRIFRGYAMGWYRQAPGKERELVAAISNGGGTNYADTVKGRFTISRDNAKNTVYLQMNSLKPEDTAVYYCATGFLQNYYKYTSSFRFYYWGQGTQVTVSS” as the sequence, how does the “polyreactivity (PSR sort gate)” value read?
A: high polyreactivity

Q: Which “polyreactivity (PSR sort gate)” value does the source give for “QVQLVESGGGLVQAGGSLRLSCAASGRIFRGYAMGWYRQAPGKERELVAAITRGGSTKYADSVKGRFTISRDNAKNTVYLQMNSLKPEDTAVYYCAKDSYPYVPLYRSRSLYGYWGQGTQVTVSS” here?
A: high polyreactivity

Q: For “QVQLVESGGGLVQAGGSLRLSCAASGRIFRGYAMGWYRQAPGKERELVATISAIGGSTYADSVKGRFTISRHNAKNTVYLQMNSLKPEDTAVYYCNVRKVYRYQYRFEYWGQGTQVTVSS”, which “polyreactivity (PSR sort gate)” value is on record?
A: high polyreactivity
